According to the RNAGym collection of RNA variant scans (doi:10.1073/pnas.2313332121):

B1: TPR t1 (parent)
chain: GACCAAUCUGCCCUCAGAGCUCGAGAACAUCUUCGGAUGCAGAGGAGGCAGGCUUCGGUGGCGCGAUAGCGCCAACGUCCUCAACCUCCAAUGCAUCCCACCACAUGAUGAUGCCUGAAGAGCCUUGGUUUUUUG

Variants of: B1
Test: polymerase ribozyme fitness, log enrichment relative to wild type (log ratio); higher = more active; in vitro selection for triplet polymerase activity
How it was run: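 The heterodimeric triplet polymerase ribozyme's subunits were each mutagenized into PCR-built libraries and transcribed. Every library was selected once, in triplicate, by annealing with a biotinylated primer, the partner subunit and triplets, incubating frozen at −7 °C, gel-excising extended constructs, capturing on streptavidin beads and running RT-PCR. Input and output libraries were Illumina-sequenced, with genotypes kept only at ≥10 input reads and ≥1 read per output. Fitness, from inverse-variance-weighted replicate averages, is the base-2 logarithm of genotype enrichment over wild-type enrichment.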

Variant	polymerase ribozyme fitness (log ratio)
U21A A27C U32G G71A U112C	-5.9
C20A A41C C82A	-4.5
C20G C40U C124U U126C	-4.35
C20A A24U U54A C115G	-6.69
C20A C115U	-3.52
C20U C28G G69C G110U	-5.16
U21C U96G C114U	-1.48
C20G U133G	-3.81
C20U G42U C73U	-2.41
C20A A29G G36U	-6.08
U21G A46C C49G	-3.41
U21A G39U C62A	-2.62
U21C A90C	-1.17
U21C C22A A43C	-4.05
C22A A26U A27U C76U A95G G110A	-6.96
G19C A84G	-3.14
U21C C22G C34A C49A A84G C123U U125G U133C	-4.3
C20A G48U	-3.37
C20U C64U C114U A118G U131A	-0.511
C22A C73A G120A	-4.58
C20U A91G	-2.03
U21G C62A C124A U131A	-1.77
C22A C53A G110C U131A	-5.4
G19U C53G U54A G61A C124A G128A	-3.82

Variant	polymerase ribozyme fitness (log ratio)
U21C G39U C56U C101U U112A	-0.219
C20U A50U U78C	-1.87
C20U G39A G110U G128A	-5.92
U21A U106A U132A	-0.182
C22A G48A G57U C70A A83G A91U C115A	-7.04
C20A G58U G71U C89G	-5.13
C20U U96A U130G	-4.47
G19U G69A U106C C114A G120C	-2.51
C20A C73G	-3.25
C22A A26G G39A G63C C99A C115G	-4.89
U21C C70U	-0.476
C20A A46U G52A	-3.85
U21A A26G C40G C49A	-3.04
C20U A95C U129A	-2.94
G19C C53A G93A C123U	-2.59
C22A G52A	-4.45
G19A G47A C88U	-2.72
C20A A66G	-4.25
G19C G63C	-2.72
C20A C22A G69U U81G U96G A121U	-5.24
G19A G48U C53G G58U U59A	-3.69
U21C C101A	-0.445
G19C A37U C124U	-1.48
C22A G42U G71U G113C	-5.64

Variant	polymerase ribozyme fitness (log ratio)
C20A G45C	-3.43
G19C C40A C85U U112A	-2.1
C20G U55C G57A A90G	-5.05
G19C G52A C88A U112G C114A	-6.11
C20U U21C U116C	-2.85
U21G A66G C73A C94A	-4.63
U21G G42A A121G	-3.11
G19A C76U C124U	-1.46
C20U A43G U78G U87A C89G	-5.4
G19C U55A C64U A66U C104U	-3.86
C20G C56U C82A G113C	-2.04
U21G G61C U87A U133G G135U	-3.09
G19C C62U C64U G120C	-2.12
G19C G42C C124G	-0.406
G19C G36C G71U U112G U116C	-3.91
C20U G36A G48C G113A	0.28
C20A G42U G47U C53U	-3.95
C20G A26G C64A C70U U78C U112A	-5.93
G19U A50U C124G	-2.97
U21A U130A	-0.5
U21A U130G	0.0378
C20G C62U U125A	-5.73
C22A G51C C72A	-6.53
C20U C28A G93U G110C	-4.8

Variant	polymerase ribozyme fitness (log ratio)
C20A U112C	-1.35
C20A U112G	-1.72
G19A C73A A105U C114U U116G	-5.41
C22A C49U	-6.04
C20G C49A U96G U112G C115G C123A	-7.57
C20U G45A	-2.57
C20U G45U	-2.33
C20A U32G G35C U59G G61A A74C	-4.63
C20U G42A U106A G113C	-2.24
C20A C49U G61U C85A	-3.53
C20A G57U C97A C115A U116C	-6.48
C20G A43G	-3.54
U21C G113C	-1.14
C20U A95C	-2.07
C20G G57C	-4.41
G19U G39C C53U C124A	-2.93
C20A U131A	-3.53
C20U C40U G60U C82A U96A C124A	-1.54
G19C C22A C53G U59G C123A	-5.66
G19U U54G C56U C123G	-6.86
C20A A29U C62U A119U U129G	-4.53
U21A G60A A90G	-0.182
C20G C114G C115U	-6
C20A G36C U126C	-4.66

Variant	polymerase ribozyme fitness (log ratio)
C20U G113A	1.4
C20U G113C	-2.2
U21C A27U G36C A111U	-4.98
U21A C76U	-0.123
C20U G36C C89G	-3.93
U21A C49A C73A C115A U130G	0.139
C20U G110U	-3.13
C20A C123G	-0.867
C20A C64G C114A	-7.24
G19U C88A	-2.97
C20A C49A U81A C104U G120C U133A G135U	-2.32
G19U C76A C85U C124G	-3.5
U21G A84U C114A	-1.88
G19U C101A	-4.08
C22A A27G C85G A100C C101U G120C G127A	-6.82
C20A G36A A84G A118G	-5.67
U21C A29U A84C U112A A119G G120C	-0.885
U21A G60U A90G	0.0218
C20A G61A	-2.67
C20G C89U U109G U132C	-3.87
C20U G44U	-2.46
C20U C62A	-2.35
U21A G57U C85U G120U	-2.48
C20A U106A C124A	-1.85

Variant	polymerase ribozyme fitness (log ratio)
G19C G93A C104U U112C	-0.693
G19U A46C	-3.44
C20U A83C U112G	-2.09
C20U A26U U32C G69U	-3.17
U21G U87A U133G G135U	-1.41
U21C G61C C85A A95U	-4.53
U21A G60U	-0.289
C20A G122A	-3.47
G19U G110C	-5.06
C20G C124A	-2.2
U21C U55G U59G G71U C115G	-4.57
C20G C115U	-4.25
U21A G39U G48A A74U U78G	-2.09
G19A G63A	-3.09
U21C A74U G120A	-0.17
C22A C53A C94U G110U	-6.9
C22A G61A A83G U96A C114A	-5.1
G19C U78C G110C	-5.42
C20A A84U A90G C98G U109A A121U	-3.83
C20G A83C A100U G120A U130C	-5.79
U21C C22A C88U	-4.68
U21A A41C A90C G93A	-4.16
C20A C49U C72U U78C	-3.44
U21G U59A A83U C123U U131C	-0.796

Variant	polymerase ribozyme fitness (log ratio)
G19A U78C C124A U129C	-1.77
C20G C53G C72U	-3.94
U21A C72G A75U C85U	-1.63
C20G U78C U109G	-3.79
C20A A46U C72G	-4.27
C20G A37U C62G C70U U112A	-6.02
C20A G51C C56A C79U U106A A121U	-7.26
C20A C101U	-3.43
C20G C123A	-4.02
U21G C53U C64U C79A	-3.11
C20U C62U U92A C97U	-5.74
G19C C20A	-6.28
U21C U54A C64A U78C G93A A111C	-6.03
C20U U54A C73A C115G	-3.1
C20U C114G	-1.55
C20U C73U	-1.6
G19A C124A U129C	-2.22
C20G A90C A95U	-4.06
C20A G71A U129G	-5.06
G19U C89U G120C	-2.25
C20A C88G	-3.11
U21C A37C U81A	-3.15
C20G A43G C89A	-3.78
